Article PMC9482650, “Quantitative fragmentomics allow affinity mapping of interactomes” (Nature Communications, 2022)

Assays:
Experiment in all cases: holdup assay
Set-up in all cases: key: below the threshold = too weak to quantify, mostly under pKd 3.1 to 4
Settings in all cases: plain residues with an end cap or a label only (N-terminal biotin on a linker: ado-ado)
[1] = molecular target: T1, APBA1_1, Q02410
T1 sequence (Q02410 651-752, limits assumed, looked up): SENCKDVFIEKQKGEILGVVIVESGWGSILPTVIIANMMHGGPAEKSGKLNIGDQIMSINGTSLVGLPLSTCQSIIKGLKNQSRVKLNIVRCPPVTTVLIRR

[2] = molecular target: T2, APBA1_2, Q02410
T2 sequence (Q02410 742-832, limits assumed, looked up): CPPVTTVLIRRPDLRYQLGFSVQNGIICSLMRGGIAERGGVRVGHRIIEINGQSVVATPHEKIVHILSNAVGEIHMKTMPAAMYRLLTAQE

[3] = molecular target: T3, APBA2_1, Q99767
T3 sequence (Q99767 563-664, limits assumed, looked up): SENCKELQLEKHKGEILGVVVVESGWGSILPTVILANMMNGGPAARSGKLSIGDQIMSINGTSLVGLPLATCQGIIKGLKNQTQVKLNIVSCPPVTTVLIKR

[4] = molecular target: DLG2_3, Q15700
[5] = molecular target: T4, DLG3_2, Q92796
T4 sequence (Q92796 221-321, limits assumed, looked up): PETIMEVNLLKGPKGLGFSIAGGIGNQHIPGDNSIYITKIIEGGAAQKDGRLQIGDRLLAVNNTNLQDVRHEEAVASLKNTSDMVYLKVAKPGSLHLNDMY

[6] = molecular target: DLG4_1, P78352
[7] = molecular target: DLG4_2, P78352
[8] = molecular target: FRMPD3, Q5JV73
[9] = molecular target: GRID2IP_2, A4D2P6
[10] = molecular target: T5, GRIP1_3, Q9Y3R0
T5 sequence (Q9Y3R0 247-346, limits assumed, looked up): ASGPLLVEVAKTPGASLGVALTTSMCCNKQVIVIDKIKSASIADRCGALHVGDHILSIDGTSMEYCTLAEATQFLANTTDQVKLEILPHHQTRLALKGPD

[11] = molecular target: T6, GRIP1_5, Q9Y3R0
T6 sequence (Q9Y3R0 568-668, limits assumed, looked up): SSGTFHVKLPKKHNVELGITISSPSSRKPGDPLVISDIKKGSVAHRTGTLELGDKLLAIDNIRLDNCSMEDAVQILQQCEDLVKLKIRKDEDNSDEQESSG

[12] = molecular target: GRIP2_4, Q9C0E4
[13] = molecular target: GRIP2_5, Q9C0E4
[14] = molecular target: HTRA1, Q92743
[15] = molecular target: IL16_3, Q14005
[16] = molecular target: Inadl_8, Q8NI35
[17] = molecular target: T7, LNX2_2, Q8N448
T7 sequence (Q8N448 334-432, limits assumed, looked up): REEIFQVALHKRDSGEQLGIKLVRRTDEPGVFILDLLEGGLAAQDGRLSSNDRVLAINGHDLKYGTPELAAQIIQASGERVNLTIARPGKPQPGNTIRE

[18] = molecular target: MAGI1_1, Q96QZ7
[19] = molecular target: T8, MPP2, Q14168
T8 sequence (Q14168 180-250, limits assumed, looked up): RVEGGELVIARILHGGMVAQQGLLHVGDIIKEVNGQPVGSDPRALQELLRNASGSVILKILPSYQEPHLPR

[20] = molecular target: T9, NHERF3_1, Q5T2W1
T9 sequence (Q5T2W1 4-100, limits assumed, looked up): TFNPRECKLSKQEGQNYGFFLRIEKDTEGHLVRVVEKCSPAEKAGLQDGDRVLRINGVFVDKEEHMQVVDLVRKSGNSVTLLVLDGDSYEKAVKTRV

[21] = molecular target: T10, NHERF3_3, Q5T2W1
T10 sequence (Q5T2W1 238-333, limits assumed, looked up): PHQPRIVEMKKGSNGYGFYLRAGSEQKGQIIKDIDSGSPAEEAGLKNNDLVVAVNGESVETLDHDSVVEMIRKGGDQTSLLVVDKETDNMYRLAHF

[22] = molecular target: NOS1, P29475
[23] = molecular target: PDLIM1, O00151
[24] = molecular target: PICK1, Q9NRD5
[25] = molecular target: T11, RHPN1, Q8TCX5
T11 sequence (Q8TCX5 508-602, limits assumed, looked up): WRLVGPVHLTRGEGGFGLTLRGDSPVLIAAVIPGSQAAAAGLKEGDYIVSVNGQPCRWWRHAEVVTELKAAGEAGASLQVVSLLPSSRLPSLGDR

[26] = molecular target: T12, SYNJ2BP, P57105
T12 sequence (P57105 8-110, limits assumed, looked up): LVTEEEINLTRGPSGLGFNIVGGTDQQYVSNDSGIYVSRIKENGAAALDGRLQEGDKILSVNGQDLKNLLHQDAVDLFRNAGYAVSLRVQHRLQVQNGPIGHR

Sequence of FRMPD3, Q5JV73 (Q5JV73 12-100): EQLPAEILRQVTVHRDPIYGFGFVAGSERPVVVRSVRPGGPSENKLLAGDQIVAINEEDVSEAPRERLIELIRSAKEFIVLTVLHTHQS
Sequence of GRIP2_5, Q9C0E4 (Q9C0E4 544-642): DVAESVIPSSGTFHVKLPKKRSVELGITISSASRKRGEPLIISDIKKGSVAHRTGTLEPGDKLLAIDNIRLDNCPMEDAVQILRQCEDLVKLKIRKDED
Sequence of DLG4_2, P78352 (P78352 155-259): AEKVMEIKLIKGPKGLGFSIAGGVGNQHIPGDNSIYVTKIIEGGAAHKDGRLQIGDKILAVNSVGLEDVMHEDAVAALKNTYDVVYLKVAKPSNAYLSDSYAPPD
Sequence of PDLIM1, O00151 (O00151 1-87): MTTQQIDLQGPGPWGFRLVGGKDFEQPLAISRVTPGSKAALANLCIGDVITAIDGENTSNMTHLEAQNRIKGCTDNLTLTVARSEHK
Sequence of GRIP2_4, Q9C0E4 (Q9C0E4 446-548): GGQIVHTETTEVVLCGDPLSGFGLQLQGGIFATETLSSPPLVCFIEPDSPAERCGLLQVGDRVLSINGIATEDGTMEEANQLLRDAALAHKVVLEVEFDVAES
Sequence of MAGI1_1, Q96QZ7 (Q96QZ7 1-106): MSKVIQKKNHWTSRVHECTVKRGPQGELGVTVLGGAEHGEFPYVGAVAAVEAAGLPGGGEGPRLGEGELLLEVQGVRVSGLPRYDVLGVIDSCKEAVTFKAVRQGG
Sequence of PICK1, Q9NRD5 (Q9NRD5 17-115): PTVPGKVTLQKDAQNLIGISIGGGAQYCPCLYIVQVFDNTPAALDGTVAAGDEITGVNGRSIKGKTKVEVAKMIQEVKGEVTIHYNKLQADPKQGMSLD
Sequence of NOS1, P29475 (P29475 9-101): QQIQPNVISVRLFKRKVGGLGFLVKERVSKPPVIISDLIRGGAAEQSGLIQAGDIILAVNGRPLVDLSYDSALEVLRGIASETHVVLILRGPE
Sequence of GRID2IP_2, A4D2P6 (A4D2P6 272-370): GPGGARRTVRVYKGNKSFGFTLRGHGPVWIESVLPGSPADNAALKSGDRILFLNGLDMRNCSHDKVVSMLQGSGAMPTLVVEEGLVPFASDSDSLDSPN
Sequence of HTRA1, Q92743 (Q92743 360-477): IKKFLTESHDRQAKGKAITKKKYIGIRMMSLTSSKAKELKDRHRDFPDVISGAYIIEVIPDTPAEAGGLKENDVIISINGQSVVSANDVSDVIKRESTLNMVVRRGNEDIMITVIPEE
Sequence of DLG4_1, P78352 (P78352 62-152): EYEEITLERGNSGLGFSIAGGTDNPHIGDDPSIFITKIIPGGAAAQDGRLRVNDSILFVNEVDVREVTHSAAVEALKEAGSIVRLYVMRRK
Sequence of Inadl_8, Q8NI35 (Q8NI35 1425-1530): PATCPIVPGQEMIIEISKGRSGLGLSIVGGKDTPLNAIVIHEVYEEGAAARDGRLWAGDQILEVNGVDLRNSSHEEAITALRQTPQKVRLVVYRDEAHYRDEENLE
Sequence of IL16_3, Q14005 (Q14005 1107-1207): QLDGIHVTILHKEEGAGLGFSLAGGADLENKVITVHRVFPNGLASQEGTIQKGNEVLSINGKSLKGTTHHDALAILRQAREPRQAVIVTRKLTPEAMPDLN

Q: For SQPLLVHDDV [KIT, P10721], which pKd [1] is on record?
A: below the threshold

Q: And the pKd [2]?
A: 3.54

Q: What about the pKd [3] of the same binder?
A: below the threshold

Q: And the pKd [4]?
A: below the threshold

Q: What about the pKd [5] of the same binder?
A: below the threshold

Q: And the pKd [6]?
A: below the threshold

Q: What about the pKd [7] of the same binder?
A: below the threshold

Q: What about the pKd [8] of the same binder?
A: below the threshold

Q: What about the pKd [9] of the same binder?
A: below the threshold

Q: What about the pKd [10] of the same binder?
A: below the threshold

Q: What about the pKd [11] of the same binder?
A: below the threshold

Q: And the pKd [12]?
A: below the threshold

Q: And the pKd [13]?
A: below the threshold

Q: And the pKd [14]?
A: below the threshold

Q: What about the pKd [15] of the same binder?
A: below the threshold

Q: What about the pKd [16] of the same binder?
A: 4.94

Q: What about the pKd [17] of the same binder?
A: below the threshold

Q: What about the pKd [18] of the same binder?
A: below the threshold

Q: And the pKd [19]?
A: below the threshold

Q: What about the pKd [20] of the same binder?
A: below the threshold

Q: What about the pKd [21] of the same binder?
A: below the threshold

Q: And the pKd [22]?
A: below the threshold

Q: What about the pKd [23] of the same binder?
A: below the threshold

Q: And the pKd [24]?
A: 4.06

Q: And the pKd [25]?
A: below the threshold

Q: What about the pKd [26] of the same binder?
A: below the threshold

Q: With PKSNSSKEYV [CLDN7, O95471] as the binder, how does the pKd [1] read?
A: below the threshold

Q: What about the pKd [2] of the same binder?
A: 3.69

Q: What about the pKd [3] of the same binder?
A: below the threshold

Q: And the pKd [4]?
A: below the threshold

Q: And the pKd [5]?
A: below the threshold

Q: What about the pKd [6] of the same binder?
A: below the threshold

Q: What about the pKd [7] of the same binder?
A: below the threshold

Q: And the pKd [8]?
A: below the threshold

Q: And the pKd [9]?
A: below the threshold

Q: What about the pKd [10] of the same binder?
A: below the threshold

Q: What about the pKd [11] of the same binder?
A: below the threshold

Q: What about the pKd [12] of the same binder?
A: below the threshold

Q: What about the pKd [13] of the same binder?
A: below the threshold

Q: What about the pKd [14] of the same binder?
A: 3.72

Q: And the pKd [15]?
A: below the threshold

Q: And the pKd [16]?
A: below the threshold

Q: What about the pKd [17] of the same binder?
A: below the threshold

Q: And the pKd [18]?
A: below the threshold

Q: What about the pKd [19] of the same binder?
A: below the threshold

Q: And the pKd [20]?
A: below the threshold

Q: What about the pKd [21] of the same binder?
A: below the threshold

Q: And the pKd [22]?
A: 3.57

Q: And the pKd [23]?
A: below the threshold

Q: And the pKd [24]?
A: below the threshold

Q: What about the pKd [25] of the same binder?
A: below the threshold

Q: And the pKd [26]?
A: below the threshold
